Source: PMC7100586

Molecular target: clathrin heavy chain (Sus scrofa)
Test: cryo-EM structure

Substance: clathrin heavy chain (natural protein)
- stoichiometry N: 3
